Laboratory results published in paper PMC2885749.

Target: TolCΔ2–22 (signal sequence-less mature TolC, His-tagged) (E. coli) (UniProt P02930)
Assay: SDS-PAGE of unheated samples

stoichiometry N: 3
Substance: TolCΔ2–22 (signal sequence-less mature TolC, His-tagged) (from UniProt P02930 23-493) (natural protein)
